For the test, the target named is PD-L1 on FEMX melanoma cells (UniProt Q9NZQ7). Nature of the test: cell-based or functional assay.
Sequence of UniProt Q9NZQ7 (Q9NZQ7 19-290 limits assumed): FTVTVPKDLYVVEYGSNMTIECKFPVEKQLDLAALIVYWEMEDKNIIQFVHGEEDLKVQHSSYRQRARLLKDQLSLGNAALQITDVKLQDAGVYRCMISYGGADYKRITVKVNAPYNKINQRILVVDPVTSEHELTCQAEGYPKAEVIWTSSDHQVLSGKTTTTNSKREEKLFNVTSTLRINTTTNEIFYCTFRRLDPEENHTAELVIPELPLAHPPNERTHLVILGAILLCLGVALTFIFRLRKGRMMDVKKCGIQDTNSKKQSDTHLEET

B1: blocking anti-PD-L1 antibody (Biolegend clone 29E.2A3) (antibody, from another filing, V domains shown)
VH: EVQLQQSGPELVKPGASVKMSCKASGYTFTSYVMHWVKQKPGQGLEWIGYVNPFNDGTKYNEMFKGKATLTSDKSSSTAYMELSSLTSEDSAVYYCARQAWGYPWGQGTLVTVSA
VL: DIVLTQSPASLAVSLGQRATISCRATESVEYYGTSLVQWYQQKPGQPPKLLIYAASSVDSGVPARFSGSGSGTDFSLTIHPVEEDDIAMYFCQQSRRVPYTFGGGTKLEIK
Turning to B1, the fraction of CD3+CD8+ TIL making IFN-gamma in a 12-hour intracellular cytokine release (ICS) assay, 1520 TIL co-cultured with FEMX tumor cells, antibody at 10 µg/mL came out at 37.3%.

The values above are taken from patent US20170175137A1.
